Results on two substances are retold here after patent US20060025335A1.

For test [1], the target named is Myc-tagged UNC5H2 (pMyc-UNC5H2) (human) (UniProt Q8IZJ1). As to the kind of experiment: cell-based or functional assay.
Test [2] deals with somatostatin receptor 3 (pCMV6c-SSTR3). As to the kind of experiment: cell-based or functional assay.

Sequence of UniProt Q8IZJ1 (Q8IZJ1 other isoform, or with tags, fused parts or gaps): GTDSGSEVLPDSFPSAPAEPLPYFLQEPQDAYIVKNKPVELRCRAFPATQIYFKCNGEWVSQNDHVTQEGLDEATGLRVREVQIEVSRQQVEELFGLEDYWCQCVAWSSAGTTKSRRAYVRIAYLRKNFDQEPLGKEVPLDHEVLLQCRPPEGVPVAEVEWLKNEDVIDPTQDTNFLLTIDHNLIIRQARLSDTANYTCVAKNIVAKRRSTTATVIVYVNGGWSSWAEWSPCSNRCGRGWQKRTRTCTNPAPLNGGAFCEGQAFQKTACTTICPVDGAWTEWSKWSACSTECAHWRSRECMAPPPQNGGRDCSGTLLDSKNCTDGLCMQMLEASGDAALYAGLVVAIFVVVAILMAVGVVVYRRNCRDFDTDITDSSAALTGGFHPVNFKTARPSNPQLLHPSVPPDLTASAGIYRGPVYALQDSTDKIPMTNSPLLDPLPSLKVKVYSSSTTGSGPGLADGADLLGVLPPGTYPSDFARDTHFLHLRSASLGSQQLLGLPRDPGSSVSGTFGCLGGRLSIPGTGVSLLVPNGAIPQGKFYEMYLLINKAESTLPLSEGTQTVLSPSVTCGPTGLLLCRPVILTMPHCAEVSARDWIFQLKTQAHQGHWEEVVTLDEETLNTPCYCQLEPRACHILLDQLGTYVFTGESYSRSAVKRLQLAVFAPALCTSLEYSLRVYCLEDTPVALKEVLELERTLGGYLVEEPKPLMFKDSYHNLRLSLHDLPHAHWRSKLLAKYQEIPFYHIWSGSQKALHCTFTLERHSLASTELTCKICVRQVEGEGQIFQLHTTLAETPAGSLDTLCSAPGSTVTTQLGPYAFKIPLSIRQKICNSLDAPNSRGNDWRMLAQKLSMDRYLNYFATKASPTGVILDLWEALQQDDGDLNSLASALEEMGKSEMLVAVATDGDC

The substance Netrin 1 (R&D Systems) (ligand) had a cAMP accumulation in transfected COS7 cells, Netrin 1 given before SST-14 in test [1] of 41%.
“somatostatin-14 (from UniProt P61278 89-116) (peptide)”: in test [2], the decrease in cAMP accumulation in transfected COS7 cells amounted to 32%.
